# Results published in paper PMC11906848, “Rational engineering of a thermostable α-oxoamine synthase biocatalyst expands the substrate scope and synthetic applicability” (Communications Chemistry, 2025).
# Experiments:
# [1] = molecular target: T1, ThAOS (Thermus thermophilus, UniProt Q5SHZ8); assay: UV-vis spectroscopy of purified holoenzyme; type: binding; conditions: covalent; internal aldimine
# T1 construct: gene TTHA1582; recombinant in E. coli BL21(DE3), pET28a, TEV-cleavable N-terminal His6 tag; homodimer; active site includes V79 of the other monomer
# Target sequence in this assay (Q5SHZ8 whole entry): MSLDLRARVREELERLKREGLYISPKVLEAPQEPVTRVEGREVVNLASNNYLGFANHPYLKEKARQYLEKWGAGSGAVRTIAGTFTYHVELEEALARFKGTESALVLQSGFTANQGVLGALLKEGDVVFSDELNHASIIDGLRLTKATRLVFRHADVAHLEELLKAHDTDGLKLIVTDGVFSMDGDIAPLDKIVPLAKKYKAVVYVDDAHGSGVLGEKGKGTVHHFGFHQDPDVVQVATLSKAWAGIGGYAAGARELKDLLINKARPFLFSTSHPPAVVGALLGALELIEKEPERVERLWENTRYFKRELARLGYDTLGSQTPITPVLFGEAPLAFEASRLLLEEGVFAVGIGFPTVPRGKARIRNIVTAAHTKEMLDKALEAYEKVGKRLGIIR
# [2] = molecular target: T1, ThAOS; assay: UV-vis titration of PLP spectrum; type: binding; conditions: 0-16 mM; external aldimine and some quinonoid formation
# Target sequence in this assay (Q5SHZ8 whole entry): as above
# [3] = molecular target: T1, ThAOS; assay: DTNB assay of CoASH release; type: biochemical; conditions: 16 mM L-Aba; 1 mM acetyl-CoA; HEPES pH 7.5; 50 °C
# Target sequence in this assay (Q5SHZ8 whole entry): as above
# [4] = molecular target: T1, ThAOS; assay: X-ray crystal structure (crystal soak), […] Å; UV-vis; type: binding; conditions: covalent PLP:L-Pen thiazolidine adduct; carboxylate chelated by Arg366
# [5] = substrate: CC[C@H](N)C(=O)O; assay: DTNB assay of CoASH release; type: biochemical, Thermus thermophilus; conditions: acetyl-CoA co-substrate, HEPES pH 7.5, 50 °C
# Source text: (§1) DTNB assay of CoASH release on ThAOS | catalytic efficiency (kcat/KM) for all four original amino acid substrates was improved substantially
# [6] = substrate: NCC(=O)O; assay: DTNB assay of CoASH release; type: biochemical, Thermus thermophilus; conditions: acetyl-CoA co-substrate, HEPES pH 7.5, 50 °C
# Source text: as §1
# [7] = substrate: N[C@@H](CO)C(=O)O; assay: purified protein; conditions: acetyl-CoA co-substrate, HEPES pH 7.5, 50 °C
# [8] = substrate: C[C@H](N)C(=O)O; assay: purified protein; conditions: acetyl-CoA co-substrate, HEPES pH 7.5, 50 °C
# [9] = substrate: CC[C@H](N)C(=O)O; assay: DTNB assay of CoASH release; type: biochemical, Thermus thermophilus; conditions: acetyl-CoA co-substrate, HEPES pH 7.5, 50 °C; remark: listed apart in the source
# [10] = substrate: NCC(=O)O; assay: DTNB assay of CoASH release; type: biochemical, Thermus thermophilus; conditions: acetyl-CoA co-substrate, HEPES pH 7.5, 50 °C; remark: listed apart in the source
molecule,measurement,setting,value
"Cc1ncc(COP(=O)(O)O)c(C=O)c1O [PLP, pyridoxal 5’-phosphate]",UV-vis spectroscopy of purified holoenzyme,[1],corresponding to the tautomeric forms of the PLP-bound internal aldimines
C[C@H](N)C(=O)O [L-Ala],UV-vis titration of PLP spectrum,[2],L-Ala binding leads to a small amount of PLP: L-Ala quinonoid formation
CC[C@H](N)C(=O)O [L-Aba],DTNB assay of CoASH release,[3],"original set of four amino acid substrates (L-Aba, L-Ala, Gly and L-Ser)"
"CC(C)(S)[C@H](N)C(=O)O [L-Pen, L-penicillamine]","X-ray crystal structure (crystal soak), 1.5 Å; UV-vis",[4],The structure of ThAOS V79A PLP:L-Pen complex (PDB: 8S1Y)
"ThAOS (Thermus thermophilus HB8; V78A) (protein, recombinant in E. coli BL21(DE3), pET28a, TEV-cleavable N-terminal His6 tag; homodimer; active site includes V79 of the other monomer) MSLDLRARVREELERLKREGLYISPKVLEAPQEPVTRVEGREVVNLASNNYLGFANHPYLKEKARQYLEKWGAGSGAARTIAGTFTYHVELEEALARFKGTESALVLQSGFTANQGVLGALLKEGDVVFSDELNHASIIDGLRLTKATRLVFRHADVAHLEELLKAHDTDGLKLIVTDGVFSMDGDIAPLDKIVPLAKKYKAVVYVDDAHGSGVLGEKGKGTVHHFGFHQDPDVVQVATLSKAWAGIGGYAAGARELKDLLINKARPFLFSTSHPPAVVGALLGALELIEKEPERVERLWENTRYFKRELARLGYDTLGSQTPITPVLFGEAPLAFEASRLLLEEGVFAVGIGFPTVPRGKARIRNIVTAAHTKEMLDKALEAYEKVGKRLGIIR",Km,[5],3.12 ± 0.35 mM
same,kcat,[5],2.25 ± 0.08 s⁻¹
same,Km,[6],8.36 ± 1.73 mM
same,kcat,[6],3.89 ± 0.32 s⁻¹
same,Km,[7],2.52 ± 0.30 mM
same,kcat,[7],3.81 ± 0.13 s⁻¹
same,Km,[8],1.59 ± 0.25 mM
same,kcat,[8],1.23 ± 0.05 s⁻¹
"ThAOS (Thermus thermophilus HB8; V78G) (protein, recombinant in E. coli BL21(DE3), pET28a, TEV-cleavable N-terminal His6 tag; homodimer; active site includes V79 of the other monomer) MSLDLRARVREELERLKREGLYISPKVLEAPQEPVTRVEGREVVNLASNNYLGFANHPYLKEKARQYLEKWGAGSGAGRTIAGTFTYHVELEEALARFKGTESALVLQSGFTANQGVLGALLKEGDVVFSDELNHASIIDGLRLTKATRLVFRHADVAHLEELLKAHDTDGLKLIVTDGVFSMDGDIAPLDKIVPLAKKYKAVVYVDDAHGSGVLGEKGKGTVHHFGFHQDPDVVQVATLSKAWAGIGGYAAGARELKDLLINKARPFLFSTSHPPAVVGALLGALELIEKEPERVERLWENTRYFKRELARLGYDTLGSQTPITPVLFGEAPLAFEASRLLLEEGVFAVGIGFPTVPRGKARIRNIVTAAHTKEMLDKALEAYEKVGKRLGIIR",Km,[9],0.83 ± 0.15 mM
same,kcat,[9],1.09 ± 0.04 s⁻¹
same,Km,[10],9.52 ± 1.91 mM
same,kcat,[10],5.12 ± 0.43 s⁻¹
same,Km,[7],4.28 ± 0.96 mM
same,kcat,[7],5.74 ± 0.43 s⁻¹
same,Km,[8],2.46 ± 0.05 mM
same,kcat,[8],2.39 ± 0.15 s⁻¹
